In the assay the target is K63-linked diubiquitin (UniProt P0CG48 1-76; P0CG48 1-76, K48R | K63R | D77 extension). Briefly: ITC.

The term stoichiometry N denotes the number of molecules, sites or subunits per partner or assembly.

B1: full-length ASCC2 (natural protein)
chain: MPALPLDQLQITHKDPKTGKLRTSPALHPEQKADRYFVLYKPPPKDNIPALVEEYLERATFVANDLDWLLALPHDKFWCQVIFDETLQKCLDSYLRYVPRKFDEGVASAPEVVDMQKRLHRSVFLTFLRMSTHKESKDHFISPSAFGEILYNNFLFDIPKILDLCVLFGKGNSPLLQKMIGNIFTQQPSYYSDLDETLPTILQVFSNILQHCGLQGDGANTTPQKLEERGRLTPSDMPLLELKDIVLYLCDTCTTLWAFLDIFPLACQTFQKHDFCYRLASFYEAAIPEMESAIKKRRLEDSKLLGDLWQRLSHSRKKLMEIFHIILNQICLLPILESSCDNIQGFIEEFLQIFSSLLQEKRFLRDYDALFPVAEDISLLQQASSVLDETRTAYILQAVESAWEGVDRRKATDAKDPSVIEEPNGEPNGVTVTAEAVSQASSHPENSEEEECMGAAAAVGPAMCGVELDSLISQVKDLLPDLGEGFILACLEYYHYDPEQVINNILEERLAPTLSQLDRNLDREMKPDPTPLLTSRHNVFQNDEFDVFSRDSVDLSRVHKGKSTRKEENTRSLLNDKRAVAAQRQRYEQYSVVVEEVPLQPGESLPYHSVYYEDEYDDTYDGNQVGANDADSDDELISRRPFTIPQVLRTKVPREGQEEDDDDEEDDADEEAPKPDHFVQDPAVLREKAEARRMAFLAKKGYRHDSSTAVAGSPRGHGQSRETTQERRKKEANKATRANHNRRTMADRKRSKGMIPS
Take B1: the “stoichiometry N” value is 1 ASCC2 per K63Ub2.

The record behind these values is publication doi:10.1101/2021.10.17.464694 (bioRxiv, 2021).
